The values below come from patent US20220135640A1, “CORTISTATIN OR AN ANALOGUE THEREOF AS A PHARMACEUTICALLY ACTIVE AGENT IN LATENT FORM” (CONSEJO SUPERIOR DE INVESTIGACIONES CIENTIFICAS (CSIC), priority 2019, published 2022).

For data set [1] the following is noted: cited from earlier work.
Data set [2] has as its system somatostatin receptors, sstr1-sstr5. The conditions noted are these: cited from earlier work.
A short description of data set [3]: Stability of cortistatin-29, free versus in LAP-CST, at room temperature. Type of data set: physicochemical. Here is the method:
On the other hand, whereas the amount of recombinant cortistatin-29 decreased in a 82% after 15 minutes at room temperature, the amount of cortistatin-29 in LAP-CST remains stable for at least 7 days.

The subject of data set [4] is LAP-GS-MMP-GS-CST-29r fusion protein (SP-LAP-L1-MMP-L2-CST29r).
Data set [5] addresses sstr4 (Homo sapiens, UniProt P31391). The conditions noted are these: cited from earlier work.
Data set [6] addresses sstrt2 receptor (Homo sapiens, UniProt P30874). The note with it: cited from earlier work.
Data set [7] has as its target sstr1 (Homo sapiens, UniProt P30872). The note with it: cited from earlier work.
In data set [8] the test system is dermal fibrosis induced by bleomycin. Kind of data set: Bleomycin-induced dermal sclerodermia, local treatment. It is filed as in vivo, C57Bl/6 mice. Here is the method:
FIG. 2 illustrates the experiments performed wherein sclerodermia was induced by intradermal injection of bleomycin (3 times per week, during four weeks) in an area of […] in the dorsal skin of C57Bl/6 mice. Mice were locally treated around the lesion area with saline (group bleomycin), with cortistatin (group belomycin+CST, 3 time per week, 10 ng each time), with empty LAP vector (Bleomycin+LAP, once a week, 20 pg) or with LAP-CST (Bleomycin+LAP-CST, once a week, 20 pg). Naïve animals without bleomycin were used as basal control reference. After four weeks, lesioned skin area was dissected and processed for histological analysis using Mason Trichromic staining. Skin thickness (from epidermis to hypodermis) was quantified using Image J program. Fibrotic deposits in skin are stained in blue in sections. […] Skin thickness (from epidermis to hypodermis) was quantified using Image J program. […]

Data set [9] concerns bleomycin-induced lung fibrosis. The data set is described as follows: Bleomycin-induced lung fibrosis, nasal inhalation (Example 3). Type of data set: in vivo, C57Bl/6 mice. The conditions noted are these: once a week, 20 pg. The protocol: (§1) FIG. 3 illustrates the experiments performed wherein lung fibrosis was induced by intratracheal injection of bleomycin (50 μg/kg body weight, dissolved in 50 μl of saline) in C57Bl/6 mice. Mice were treated by nasal inhalation of saline (group bleomycin+saline), cortistatin (group belomycin+CST, 3 times per week, 10 ng each time), or LAP-CST (Bleomycin+LAP-CST, once a week, 20 pg). After 18 days, lungs were dissected and processed for histological analysis using Mason Trichromic staining and Sirius Red staining. Lung fibrosis and tissue damage were quantified using Image J program and scored using an established clinical index from 0 to 4 in a blinded fashion. Mortality caused by fibrosis is shown in this figure.
as §1, with “Lung” for “FIG. 3 illustrates the experiments performed wherein lung”, “fashion.” for “fashion. Mortality caused by fibrosis is shown in this figure.”

Data set [10] concerns the target T1, recombinant MMP1 (Homo sapiens, UniProt P03956).
T1 sequence (P03956 100-469): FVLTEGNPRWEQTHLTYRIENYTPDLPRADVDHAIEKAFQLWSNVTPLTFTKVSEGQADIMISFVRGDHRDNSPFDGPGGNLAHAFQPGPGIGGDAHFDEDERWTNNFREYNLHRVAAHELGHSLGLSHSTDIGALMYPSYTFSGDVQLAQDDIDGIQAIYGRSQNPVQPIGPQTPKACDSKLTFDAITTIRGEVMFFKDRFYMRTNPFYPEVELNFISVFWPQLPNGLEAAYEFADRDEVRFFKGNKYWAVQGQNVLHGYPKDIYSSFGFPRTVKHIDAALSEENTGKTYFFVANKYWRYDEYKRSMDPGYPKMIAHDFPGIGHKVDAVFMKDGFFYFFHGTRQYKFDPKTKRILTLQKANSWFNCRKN
The data set is described as follows: Treatment of LAP-CST supernatants with recombinant MMP1, Cortistatin-29 recovered. It is filed as biochemical. The conditions noted are these: 48 h supernatants treated with recombinant MMP1; diminished from 80 ng; 12 hours later. An excerpt:
The amount of LAP-MMP-CST-29r peptide in culture supernatants was indirectly determined by measuring the concentration of rat Cortistatin-29 by using a specific ELISA (Phoenix Pharmaceuticals).

Data set [11] relates to liver fibrosis induced by CCl4. Kind of data set: CCl4-induced liver fibrosis. It is filed as in vivo, C57Bl/6 mice. The note with it: systemic, once a week, 100 pg/mouse, 6 weeks. The protocol:
FIG. 4 is a quantification of liver fibrosis and tissue damage using Image J program and scored using an established clinical ISHAK index from 0 to 4 in a blinded fashion.
Liver fibrosis was induced by intraperitoneal injection of CCl4 (3:9 in olive oil, 40 μl/mouse, every three days) in C57Bl/6 mice. Mice were treated three times a week with cortistatin (500 ng/mouse) or once a week with LAP-CST (100 pg/mouse). After 6 weeks, liver was dissected and processed for histological analysis using Mason Trichromic staining and Sirius Red staining. Liver fibrosis and tissue damage were quantified using Image J program and scored using an established clinical ISHAK index from 0 to 4 in a blinded fashion (FIG. 4).

Data set [12] concerns bleomycin-induced lung fibrosis. Kind of data set: Bleomycin-induced lung fibrosis, comparison of LAP constructs (Example 5). It is filed as in vivo, C57Bl/6 mice. The note with it: nasal inhalation, once a week, 20 pg, 18 days. The protocol:
FIG. 5. Lung fibrosis and tissue damage were quantified using Image J program and scored using an established clinical index from 0 to 4 in a blinded fashion. Mortality caused by fibrosis is shown in this figure.
Lung fibrosis was induced by intratracheal injection of bleomycin (50 μg/kg body weight, dissolved in 50 μl of saline) in C57Bl/6 mice. Mice were treated once a week by nasal inhalation of 20 pg of empty LAP (A), LAP containing only cortistatin (B), LAP containing cortistatin and linkers LAP-L1L2-CST but not MMP site (C), or LAP containing cortistatin, linkers and MMP site (D). After 18 days, lungs were dissected and processed for histological analysis using Mason Trichromic staining and Sirius Red staining. Lung fibrosis and tissue damage were quantified using Image J program and scored using an established clinical index from 0 to 4 in a blinded fashion.

Bridge positions count the residues as written; N and C are the ends. Ends that are not written are not given here.

Chain of sstr1 (P30872 whole entry): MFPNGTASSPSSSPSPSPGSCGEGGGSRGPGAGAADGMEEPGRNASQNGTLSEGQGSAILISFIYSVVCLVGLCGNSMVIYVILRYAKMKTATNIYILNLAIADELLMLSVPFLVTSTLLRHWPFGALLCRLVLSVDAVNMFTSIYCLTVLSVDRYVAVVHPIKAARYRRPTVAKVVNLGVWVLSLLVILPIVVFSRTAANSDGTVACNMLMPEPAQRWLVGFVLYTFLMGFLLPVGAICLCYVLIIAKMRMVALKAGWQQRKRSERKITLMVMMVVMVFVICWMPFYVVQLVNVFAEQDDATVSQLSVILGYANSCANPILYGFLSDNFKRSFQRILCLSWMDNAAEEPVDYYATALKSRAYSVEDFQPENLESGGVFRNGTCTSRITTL
Chain of sstr4 (P31391 whole entry): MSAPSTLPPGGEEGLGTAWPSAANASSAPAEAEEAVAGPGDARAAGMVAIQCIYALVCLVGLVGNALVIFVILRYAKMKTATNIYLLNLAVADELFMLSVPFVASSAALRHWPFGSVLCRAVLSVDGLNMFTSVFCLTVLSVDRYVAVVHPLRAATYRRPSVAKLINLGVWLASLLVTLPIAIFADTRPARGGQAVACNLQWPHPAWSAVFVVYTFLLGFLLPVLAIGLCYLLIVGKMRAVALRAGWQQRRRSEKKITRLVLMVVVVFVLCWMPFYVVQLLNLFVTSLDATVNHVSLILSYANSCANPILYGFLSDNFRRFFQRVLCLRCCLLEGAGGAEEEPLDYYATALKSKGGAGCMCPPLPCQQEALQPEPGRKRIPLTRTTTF
Chain of sstrt2 receptor (P30874 whole entry): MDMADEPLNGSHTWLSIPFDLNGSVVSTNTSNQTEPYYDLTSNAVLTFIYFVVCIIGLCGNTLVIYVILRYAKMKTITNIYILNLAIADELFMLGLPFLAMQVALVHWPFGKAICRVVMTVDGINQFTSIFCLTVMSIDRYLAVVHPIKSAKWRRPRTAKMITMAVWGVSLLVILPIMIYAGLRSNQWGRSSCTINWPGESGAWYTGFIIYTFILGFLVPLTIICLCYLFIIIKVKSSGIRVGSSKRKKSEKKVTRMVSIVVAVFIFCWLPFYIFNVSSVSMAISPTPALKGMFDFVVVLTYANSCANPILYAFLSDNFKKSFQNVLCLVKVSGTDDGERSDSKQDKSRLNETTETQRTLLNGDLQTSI

cortistatin: in data set [1], the blood half-life result is reported as “a few minutes”. Besides, the “affinity to somatostatin receptors” value in data set [2] is given as “nanomolar affinity”.
In the case of “cortistatin-29: rat sequence of cortistatin, 29 amino acids (GenBank: EDL81150.1) (QERPPLQQPPHRDKKPCKNFFWKTFSSCK-OH; disulfide 17-28 (inferred); ends not checked; UniProt Q62949 84-112, looked up) [reference compound]”, in [3] (after 15 minutes at room temperature), the “decrease of the amount of cortistatin-29” value was found to be 82%.
Turning to recombinant MMP1, in data set [4], the “amount of Cortistatin-29 (indirectly measuring LAP-CST) recovered from the culture, 12 hours after MMP1 treatment” value is recorded as “diminished from 80 ng to 20 ng, 12 hours later” and the “amount of Cortistatin-29 (indirectly measuring LAP-CST) recovered from the culture, before MMP1 treatment” value is reported as “diminished from 80 ng to 20 ng, 12 hours later”.
For the molecule `C[C@@H](O)[C@@H]1NC(=O)[C@H](CCCCN)NC(=O)[C@@H](Cc2c[nH]c3ccccc23)NC(=O)[C@H](Cc2ccccc2)NC(=O)[C@@H](NC(=O)[C@H](N)Cc2ccccc2)CSSC[C@@H](C(=O)N[C@H](CO)[C@@H](C)O)NC1=O` [octreotide], the “affinity to the sstr4 receptor” value in data set [5] is recorded as “completely loses its affinity”. In [6], the “binding to the sstrt2 receptor” value is on record as “keeps binding”. In data set [7], the “affinity to the sstr1 receptor” value is reported as “completely loses its affinity”.

B1: LAP-CST: fusion protein of LAP of TGFβ-1 (Met1-Ser273), MMP cleavage site PLGLWA flanked by GGGGS linkers, and rat cortistatin-29 (protein)
chain: MPPSGLRLLPLLLPLLWLLVLTPGRPAAGLSTCKTIDMELVKRKRIEAIRGQILSKLRLASPPSQGEVPPGPLPEAVLALYNSTRDRVAGESAEPEPEPEADYYAKEVTRVLMVETHNEIYDKFKQSTHSIYMFFNTSELREAVPEPVLLSRAELRLLRLKLKVEQHVELYQKYSNNSWRYLSNRLLAPSDSPEWLSFDVTGVVRQWLSRGGEIEGFRLSAHCSCDSRDNTLQVDINGFTTGRRGDLATIHGMNRPFLLLMATPLERAQHLQSEFGGGGSPLGLWAGGGGSAAAQERPPLQQPPHRDKKPCKNFFWKTFSSCK
modifications: Fusion peptide
Turning to B1, in data set [8] (local, once a week, 20 pg, four weeks, compared with LAP alone, as effective as cortistatin 10 ng 3 times per week), the “dermal fibrosis (skin thickness, Mason Trichromic staining)” value is on record as “effective in reducing dermal fibrosis”. The “effectiveness of a single injection relative to recombinant cortistatin” value in data set [8] (weekly 20 pg versus cortistatin 3 times per week at 500-fold higher concentration) is given as “at least 1,500 times”. Moreover, the “lung fibrosis and damage” value in data set [9] (18 days, as effective as cortistatin 3 times per week at 500-fold higher dose) is “significantly reduced lung fibrosis and damage”. Further, the survival entry is recorded as “dramatically increased survival” in [9] (bleomycin alone causes 80% of mortality) and 100% in data set [11] (mortality of 50% in untreated mice). The “time the amount of cortistatin-29 remains stable” value in [3] (cortistatin-29 in LAP-CST) is “at least 7 days”. In data set [10], the “amount of Cortistatin-29 (indirectly measuring LAP-CST) recovered from the culture” value was 20 ng. In addition, the liver fibrotic area result in data set [11] (similar to cortistatin 500 ng/mouse three times a week) is “significantly reduced liver fibrotic area”. Besides, in data set [12], the “protection versus bleomycin-induced lung fibrosis and mortality” value is listed as “protected”.
